In patent publication US20080038748:

Tested on: human recombinant LAP β1 (R&D), not treated with protease
Sequence (chain, as listed by the source): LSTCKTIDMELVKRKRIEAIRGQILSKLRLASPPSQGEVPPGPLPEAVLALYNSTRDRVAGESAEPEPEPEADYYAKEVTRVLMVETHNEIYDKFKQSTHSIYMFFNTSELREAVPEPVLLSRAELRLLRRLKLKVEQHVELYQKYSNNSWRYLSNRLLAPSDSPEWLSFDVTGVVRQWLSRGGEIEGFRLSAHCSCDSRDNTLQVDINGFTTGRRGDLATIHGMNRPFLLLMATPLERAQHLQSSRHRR

human plasma kallikrein (Sigma), sequence (chain, as listed by the source): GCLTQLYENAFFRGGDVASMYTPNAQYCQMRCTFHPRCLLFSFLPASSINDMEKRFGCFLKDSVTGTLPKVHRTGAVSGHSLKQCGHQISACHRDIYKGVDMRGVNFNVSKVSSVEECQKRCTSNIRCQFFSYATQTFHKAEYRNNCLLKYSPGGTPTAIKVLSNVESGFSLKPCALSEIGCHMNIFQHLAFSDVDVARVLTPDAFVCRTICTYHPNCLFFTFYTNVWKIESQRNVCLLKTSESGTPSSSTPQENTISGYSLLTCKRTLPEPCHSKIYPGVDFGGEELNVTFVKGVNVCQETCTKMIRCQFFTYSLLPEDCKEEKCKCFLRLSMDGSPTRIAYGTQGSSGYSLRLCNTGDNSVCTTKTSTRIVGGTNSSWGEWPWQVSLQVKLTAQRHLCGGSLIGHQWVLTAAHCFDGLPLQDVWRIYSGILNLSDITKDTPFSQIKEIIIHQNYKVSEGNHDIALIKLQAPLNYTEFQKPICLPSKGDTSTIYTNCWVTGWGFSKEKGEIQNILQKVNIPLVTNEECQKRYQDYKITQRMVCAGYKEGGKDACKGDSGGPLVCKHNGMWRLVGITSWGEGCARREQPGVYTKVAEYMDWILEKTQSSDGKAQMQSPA
human recombinant matrix metalloprotease 3 (MMP3) (Alexis), sequence (chain, as listed by the source): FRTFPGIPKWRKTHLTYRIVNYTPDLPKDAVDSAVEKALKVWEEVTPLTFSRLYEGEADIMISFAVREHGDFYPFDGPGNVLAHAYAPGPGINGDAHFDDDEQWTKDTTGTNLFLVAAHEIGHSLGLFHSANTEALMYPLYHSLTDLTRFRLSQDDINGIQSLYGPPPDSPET

| Substance | limited degradation; cleavage site by N-terminal sequencing of the fragments |
| --- | --- |
| human recombinant matrix metalloprotease 3 (MMP3) (Alexis) | MMP3 specifically cleaves between 79 Ala and 80 Leu thereof |
| human plasma kallikrein (Sigma) | plasma kallikrein specifically cleaves between 58 Arg and 59 Leu thereof |
